Results published in patent US20030096747A1.

Biological target: VEGFR-1 expressed in rat cavernous smooth muscle cells (CSMC) (rat) (UniProt P53767)
Experiment: cell-based or functional assay

VEGFR-1 expressed in rat cavernous smooth muscle cells (CSMC) (rat), sequence (P53767 23-1336): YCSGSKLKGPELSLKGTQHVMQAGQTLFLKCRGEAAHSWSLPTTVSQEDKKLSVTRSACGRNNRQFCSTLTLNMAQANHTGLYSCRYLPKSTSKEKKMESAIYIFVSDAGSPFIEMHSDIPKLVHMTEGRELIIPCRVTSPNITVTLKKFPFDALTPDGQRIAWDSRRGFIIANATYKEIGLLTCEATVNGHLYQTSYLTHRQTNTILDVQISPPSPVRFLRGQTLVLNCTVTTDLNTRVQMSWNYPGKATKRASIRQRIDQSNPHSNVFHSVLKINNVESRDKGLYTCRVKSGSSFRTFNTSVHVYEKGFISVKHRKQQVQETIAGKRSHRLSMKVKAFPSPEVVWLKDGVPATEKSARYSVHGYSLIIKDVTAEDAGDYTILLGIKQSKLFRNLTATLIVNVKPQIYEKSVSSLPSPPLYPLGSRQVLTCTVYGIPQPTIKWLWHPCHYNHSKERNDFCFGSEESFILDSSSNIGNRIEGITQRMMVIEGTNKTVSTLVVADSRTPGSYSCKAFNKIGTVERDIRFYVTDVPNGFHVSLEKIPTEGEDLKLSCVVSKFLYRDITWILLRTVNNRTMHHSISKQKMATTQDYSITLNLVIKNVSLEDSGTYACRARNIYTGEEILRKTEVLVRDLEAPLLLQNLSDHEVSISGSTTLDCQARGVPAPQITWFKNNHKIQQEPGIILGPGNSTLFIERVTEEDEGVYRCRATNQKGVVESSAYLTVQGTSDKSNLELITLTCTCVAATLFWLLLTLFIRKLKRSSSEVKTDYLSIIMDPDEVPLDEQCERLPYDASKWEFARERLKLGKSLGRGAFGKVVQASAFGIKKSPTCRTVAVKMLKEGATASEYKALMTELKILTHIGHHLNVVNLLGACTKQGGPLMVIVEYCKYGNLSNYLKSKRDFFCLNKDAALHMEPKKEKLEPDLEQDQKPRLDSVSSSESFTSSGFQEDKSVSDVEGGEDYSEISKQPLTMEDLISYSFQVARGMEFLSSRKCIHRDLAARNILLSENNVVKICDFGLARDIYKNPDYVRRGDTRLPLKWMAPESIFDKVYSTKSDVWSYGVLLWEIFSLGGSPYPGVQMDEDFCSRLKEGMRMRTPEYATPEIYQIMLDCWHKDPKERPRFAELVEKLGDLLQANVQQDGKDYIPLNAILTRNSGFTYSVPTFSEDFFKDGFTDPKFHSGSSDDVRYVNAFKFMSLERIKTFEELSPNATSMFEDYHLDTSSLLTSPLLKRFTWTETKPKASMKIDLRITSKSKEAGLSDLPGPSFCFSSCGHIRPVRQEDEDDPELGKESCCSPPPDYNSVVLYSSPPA

Q: With “Recombinant human VEGF165 (from UniProt P15692 27-191) (ligand)” as the substance, how does the migration of rat CSMC (Transwell, 4 hr); optimal VEGF concentration read?
A: Its migration of rat CSMC (Transwell, 4 hr); optimal VEGF concentration is 10 ng/mL.

Q: What about the proliferation of rat CSMC (CellTiter-96, OD490nm, 3 days); optimal VEGF concentration of the same substance?
A: The proliferation of rat CSMC (CellTiter-96, OD490nm, 3 days); optimal VEGF concentration was 12.5 ng/mL.
